Test results reported in US20240239894A1, “THERAPEUTIC BINDING MOLECULES” (MedImmune Limited, priority 2020, published 2024).
Positions count from the first letter of the chain named. Read-outs that look alike come from different tables or passages of the source.

Legend:
[1] = biological target: T1, monomeric B7-H4-FLAG (Homo sapiens, UniProt Q7Z7D3); experiment: HTRF epitope binning; type: binding
T1 construct: 10His; made in house
T1 sequence (Q7Z7D3 25-259 limits assumed): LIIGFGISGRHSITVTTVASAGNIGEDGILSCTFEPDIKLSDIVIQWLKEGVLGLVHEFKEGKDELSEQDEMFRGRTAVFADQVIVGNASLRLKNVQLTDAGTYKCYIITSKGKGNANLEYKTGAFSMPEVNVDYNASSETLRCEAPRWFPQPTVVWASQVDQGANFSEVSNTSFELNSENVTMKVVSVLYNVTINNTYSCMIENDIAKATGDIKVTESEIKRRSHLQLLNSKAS
Method: Epitope binning was performed in an HTRF assay format using the exemplary antibodies (IgG1-TM) conjugated with DyLight-649 binding to the monomeric B7-H4-FLAG LCD with detection with europium conjugated anti-FLAG antibody.
Bin 1 was defined with the ZY0EPQ-E02, ZY0EQD-E02 and ZY0E05-E07 antibodies fully inhibiting each other, and only partial inhibiting ZY0EP0-C07. Bin 2 was defined with the ZY0EOB-F05 antibody fully competing with all antibodies and all antibodies fully competing with it. Bin 3 was defined with ZY0EP0-C07 partially competing with antibodies ZY0EPQ-E02, ZY0EQD-E02 and ZY0E05-E07 (Bin 1).

[2] = biological target: T2, MurineB7-H4 (Mus musculus, UniProt Q7TSP5); experiment: ForteBio Octet affinity; type: binding, murine
T2 construct: Mouse B7H4 ECD; FLAG (C); 10His (C); made in house
T2 sequence (Q7TSP5 25-257 limits assumed): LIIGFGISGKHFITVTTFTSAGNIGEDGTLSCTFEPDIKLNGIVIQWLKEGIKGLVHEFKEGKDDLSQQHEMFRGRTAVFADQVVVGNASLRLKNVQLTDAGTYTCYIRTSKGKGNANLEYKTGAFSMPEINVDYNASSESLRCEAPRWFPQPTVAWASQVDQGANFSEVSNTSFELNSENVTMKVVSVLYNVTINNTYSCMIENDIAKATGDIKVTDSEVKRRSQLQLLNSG

[3] = biological target: T3, HumanB7-H4 (Homo sapiens, UniProt Q7Z7D3); experiment: ForteBio Octet affinity; type: binding
T3 construct: Human B7H4 ECD; FLAG; 10His; made in house
T3 sequence (Q7Z7D3 25-259 limits assumed): T1 sequence (Q7Z7D3 25-259 limits assumed)

[4] = biological target: B7-H4-SV (splice variant); experiment: ForteBio Octet affinity
[5] = system: transfected HEKs (full length B7-H4 vector); experiment: On-cell western; type: cell-based
Method: (§1) The on-cell western method was developed and used to run 5 exemplary antibody clones with the following cells: SKBR3, A549, OVCAR4 (all minus transfections with B7-H4 vector), CHO and HEK cells (plus and minus transfection with full length B7-H4 vector).
(§2) Cells were detached from T175 flasks using Accutase and counted. Transfection method used was essentially that stated in the Invitrogen Lipofectamine LTX protocol (high throughput protocol using the reverse transfection method). 100 μl of cells (4.5×10^4 per 100 μl) was added to 96 well plates containing the DNA-lipofectamine mix. Plates incubated at 37° C. for 18 hours and fixed using 10% buffered formalin overnight. Plates were blocked with Odyssey blocking buffer, incubated with appropriate primary antibodies overnight followed by washing and detection with the appropriate Odyssey secondary antibody.
(§3) Plates were air dried and scanned using the Odyssey Imager using the recommended scan levels provided by the manufacturer.

[6] = system: transfected CHOs (full length B7-H4 vector); experiment: On-cell western; type: cell-based, Chinese hamster
Method: as §1, §2, §3

[7] = system: OVCAR4 cells; experiment: On-cell western; type: cell-based, human
Method: as §1, §2, §3

[8] = system: B7-H4 from human (including a splice variant), cynomolgus macaque, mouse and rat; experiment: Clone ZY0EQD_E02 specificity ELISA; type: binding; conditions: Maia format mAbs
[9] = system: SKBR3, A549, OVCAR4, CHO and HEK cells; experiment: On-cell western, panel of cell types; type: cell-based; conditions: compared with control antibodies (lanes E, U, R, S)
Method: as §1, §2, §3

[10] = biological target: T4, recombinant mouse B7-H4 (Mus musculus, UniProt Q7TSP5); experiment: SPR affinity of Fab; type: binding
T4 sequence (Q7TSP5 25-257): T2 sequence (Q7TSP5 25-257 limits assumed)
Method: The binding affinity of anti-B7-H4 antibody E02-INT Fab for recombinant human, cynomolgus monkey, and mouse B7-H4 variants were determined by surface plasmon resonance (SPR).

B1: ZY0EP0-C07: anti-B7-H4 antibody clone, VH SEQ ID NO: 39, VL SEQ ID NO: 40 (antibody, V domains shown)
VH: QVQLVESGGVLVKPGGSLRLSCAASGFTLSDYYMSWIRQAPGMGLEWVSYISSSGSTIYYTDSVKGRFTISRDSAKNSLYLQMNSLRAEDTAVYYCARDGVGFDYWGQGTLVTVSS
VL: EIVLTQSPGTLSLFPGERATLSCRASQSVSSSYLAWYQQKPGQSPRLLIYAASSRATGIPDRFSGSGSGTDFTLTISRLEPEDFAVYYCQQYGSSPLYTFGQGTKLEIK
- Epitope Bin [1]: Bin 3
- Epitope Bin ([1]; listed as ZY0EPO-C07): 3
- kdis ([2]; hIgG1 (n = 1)): 0.000551 s⁻¹
- kon ([2]; hIgG1 (n = 1)): 60200 M⁻¹ s⁻¹
- kdis ([2]; hIgG1-TM (n = 4-7)): 0.000524 s⁻¹
- kon ([2]; hIgG1-TM (n = 4-7)): 43000 M⁻¹ s⁻¹
- kdis ([3]; hIgG1 (n = 1)): 0.000363 s⁻¹
- kon ([3]; hIgG1 (n = 1)): 48800 M⁻¹ s⁻¹
- kdis ([3]; hIgG1-TM (n = 4-7)): 0.000397 s⁻¹
- kon ([3]; hIgG1-TM (n = 4-7)): 41600 M⁻¹ s⁻¹
- KD (nM) ([4]; hIgG1 (n = 1)): No Binding
- KD (nM) ([4]; hIgG1-TM (n = 4-7)): No Binding
- Octet KD (nM) ([4]; summary Table 14): No Binding

B2: ZY0EOB-F05: anti-B7-H4 antibody clone, VH SEQ ID NO: 35, VL SEQ ID NO: 36 (antibody, V domains shown)
VH: QVQLQESGPGLVKPSQTLSLTCTVSDGSISSGGYYWSWIRQHPGKGLEWIGNIYYSGSTYYNPSLKSRVTISVDTSKNQFSLKLNSVTAADTAVYYCATEKALATVTPSGYENYYTVDVWGQGTTVTVSS
VL: DIQLTQSPSFLSASVGDRVTITCWASQGISSYLAWYQQKPGKAPKLLIYAASTLQSGVPSRFSGSGSGTEFTLTISSLQPEDFATYYCQHLNSYPLTFGGGTKVEIK
- kdis ([2]; hIgG1 (n = 1)): 0.000493 s⁻¹
- kon ([2]; hIgG1 (n = 1)): 24900 M⁻¹ s⁻¹
- kdis ([2]; hIgG1-TM (n = 4-7)): 0.000476 s⁻¹
- kon ([2]; hIgG1-TM (n = 4-7)): 18700 M⁻¹ s⁻¹
- binding to transfected HEKs [5]: good results
- kdis ([3]; hIgG1 (n = 1)): 0.000362 s⁻¹
- kon ([3]; hIgG1 (n = 1)): 31000 M⁻¹ s⁻¹
- kdis ([3]; hIgG1-TM (n = 4-7)): 0.000355 s⁻¹
- kon ([3]; hIgG1-TM (n = 4-7)): 26500 M⁻¹ s⁻¹
- kdis ([4]; hIgG1 (n = 1)): 0.000598 s⁻¹
- kon ([4]; hIgG1 (n = 1)): 4710 M⁻¹ s⁻¹
- kdis ([4]; hIgG1-TM (n = 4-7)): 0.000584 s⁻¹
- kon ([4]; hIgG1-TM (n = 4-7)): 3350 M⁻¹ s⁻¹
- binding to transfected CHOs [6]: bind
- binding to OVCAR4 cells [7]: bind

B3: ZY0E05-E07: anti-B7-H4 antibody clone, VH SEQ ID NO: 37, VL SEQ ID NO: 38 (antibody, V domains shown)
VH: B2 VH with D26G, N85S, T99R, T105S, T107I, T116V
VL: B2 VL with D17G, S30A, S31G
- kdis ([2]; hIgG1 (n = 1)): 0.000415 s⁻¹
- kon ([2]; hIgG1 (n = 1)): 17900 M⁻¹ s⁻¹
- kdis ([2]; hIgG1-TM (n = 4-7)): 0.000361 s⁻¹
- kon ([2]; hIgG1-TM (n = 4-7)): 12100 M⁻¹ s⁻¹
- binding to transfected HEKs [5]: good results
- kdis ([3]; hIgG1 (n = 1)): 0.000318 s⁻¹
- kon ([3]; hIgG1 (n = 1)): 21700 M⁻¹ s⁻¹
- kdis ([3]; hIgG1-TM (n = 4-7)): 0.000338 s⁻¹
- kon ([3]; hIgG1-TM (n = 4-7)): 17100 M⁻¹ s⁻¹
- kdis ([4]; hIgG1 (n = 1)): 0.000528 s⁻¹
- kon ([4]; hIgG1 (n = 1)): 2910 M⁻¹ s⁻¹
- kdis ([4]; hIgG1-TM (n = 4-7)): 0.000499 s⁻¹
- kon ([4]; hIgG1-TM (n = 4-7)): 1890 M⁻¹ s⁻¹
- binding to transfected CHOs [6]: bind
- binding to OVCAR4 cells [7]: bind

B4: ZY0EQD-E02: anti-B7-H4 antibody clone, VH SEQ ID NO: 33, VL SEQ ID NO: 34 (antibody, V domains shown)
VH: QVQLQQWGAGLLKPSETLSLTCAVYGGSFSGYYWNWIRQPPGKGLEWIGEINHSGSTSYNPSLKSRVTISVDTSKNQFSLKLSSVTAADTAVYYCARVLYNWNVDSWGQGTLVTVSS
VL: DIQMTQSPSSLSASVGDRVTITCRASQDIRNDVGWYQQKPGKAPKRLIYAASRLQSGVPSRFSGSGSGTEFTLTISSLQPEDFATYYCLQHNSYPRTFGQGTKVEIK
- binding profile to B7-H4 antigens [8]: binding to human, cynomolgus, mouse and rat B7-H4
- kdis ([2]; hIgG1 (n = 1)): 0.213 s⁻¹
- kon ([2]; hIgG1 (n = 1)): 341000 M⁻¹ s⁻¹
- kdis ([2]; hIgG1-TM (n = 4-7)): 0.126 s⁻¹
- kon ([2]; hIgG1-TM (n = 4-7)): 203000 M⁻¹ s⁻¹
- kdis ([3]; hIgG1 (n = 1)): 0.00321 s⁻¹
- kon ([3]; hIgG1 (n = 1)): 216000 M⁻¹ s⁻¹
- kdis ([3]; hIgG1-TM (n = 4-7)): 0.00278 s⁻¹
- kon ([3]; hIgG1-TM (n = 4-7)): 193000 M⁻¹ s⁻¹
- binding across cell types [9]: bind a wide spectrum of cell types
- kdis ([4]; hIgG1 (n = 1)): 0.00349 s⁻¹
- kon ([4]; hIgG1 (n = 1)): 4190 M⁻¹ s⁻¹
- kdis ([4]; hIgG1-TM (n = 4-7)): 0.00269 s⁻¹
- kon ([4]; hIgG1-TM (n = 4-7)): 3360 M⁻¹ s⁻¹
- binding to OVCAR4 cells [7]: bind

B5: E02-INT Fab: antigen binding fragment of anti-B7-H4 antibody E02-INT (antibody, V domains shown)
VH: B4 VH with T21A, A23T
VL: B4 VL
- fold lower affinity for mouse than for human B7-H4 antigen [10]: approximately 100 fold

B6: ZY0EPQ-E02: anti-B7-H4 antibody clone, VH SEQ ID NO: 31, VL SEQ ID NO: 32 (antibody, V domains shown)
VH: B4 VH with S58N, S70L, V98N, V104L
VL: B4 VL with D28G, V33L, K42R, A50V, R53S
- kdis ([2]; hIgG1 (n = 1)): 0.0498 s⁻¹
- kon ([2]; hIgG1 (n = 1)): 100000 M⁻¹ s⁻¹
- kdis ([2]; hIgG1-TM (n = 4-7)): 0.0304 s⁻¹
- kon ([2]; hIgG1-TM (n = 4-7)): 76700 M⁻¹ s⁻¹
- kdis ([3]; hIgG1 (n = 1)): 0.00208 s⁻¹
- kon ([3]; hIgG1 (n = 1)): 85900 M⁻¹ s⁻¹
- kdis ([3]; hIgG1-TM (n = 4-7)): 0.00182 s⁻¹
- kon ([3]; hIgG1-TM (n = 4-7)): 70900 M⁻¹ s⁻¹
- binding across cell types [9]: bind a wide spectrum of cell types
- kdis ([4]; hIgG1 (n = 1)): 0.00252 s⁻¹
- kon ([4]; hIgG1 (n = 1)): 2460 M⁻¹ s⁻¹
- kdis ([4]; hIgG1-TM (n = 4-7)): 0.00229 s⁻¹
- kon ([4]; hIgG1-TM (n = 4-7)): 1380 M⁻¹ s⁻¹
- binding to OVCAR4 cells [7]: bind
